Source: the supplement of paper PMC9170038

Test system: MS2 coat protein
Experiment: apparent KD of MS2 coat protein; designed switch direction (-1 OFF switch, 1 ON switch): -1; higher = weaker reporter binding
How it was run: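 Designed RNA switches with common flanks were made on Illumina chips by stalled E. coli RNA polymerase. Titration with SNAP-549-labelled MS2 coat protein doubled from 0.7 or 1.5 nM up to 3 µM. Apparent KD is each design's median over clusters after curve-fitting normalised fluorescence.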

[1] = Eterna round: R95, input ligand: microRNA oligo, concentration not stated
[2] = input ligand: microRNA oligo, concentration not stated
[3] = Eterna round: R95, input ligand: FMN 200 uM
[4] = Eterna round: R95, input ligand: none

Sequence	apparent KD of MS2 coat protein (input ligand: FMN 200 uM) [nM]	apparent KD of MS2 coat protein (input ligand: none) [nM]	apparent KD of MS2 coat protein [1] [nM]	apparent KD of MS2 coat protein [2] [nM]	apparent KD of MS2 coat protein [3] [nM]	apparent KD of MS2 coat protein [4] [nM]
UAACUUCUUGUAAGGAUAUUGGCGCGAAAGCGCACCGAGAAGGUACAUGAGGAUCACCCAUGUGAAAUAAGAAU [Mod of Zala 13 - Jieux - Brourd's Mod of Exclusion 4] (Eterna round: R97, puzzle: Brourd's mod of Exclusion 4)	47.5	27.2	–	–	–	–
UAAGAGUGAGGAUAUACGUCGCUGGUCCGGAUGGACGCAUGACAUGAGGAUCACCCAUGUAGAAGGCACAAAAC [Enxela] (puzzle: Exclusion 2)	–	–	26.8	–	–	–
UAAGAUUACCGAGGAUAUGGUAAUUUUUGUUAACCAGAAGGCGGACUCAACAUGAGGAUCACCCAUGUAUAAAGGGUAUUAGUU [JR_ExcNG1_Sub040] (Eterna round: R96, puzzle: Exclusion NG 1)	100	96.4	–	74.2	–	–
UAAGCUACUGUCAGGAUAUCGUAAUUGGUGAACGACGAGAAGGGACAUGAGGAUCACCCAUGUCGAUGACUGGG [Eternabot (L2) Solution 97] (Eterna round: R97, puzzle: Brourd's mod of Exclusion 4)	386	200	–	–	–	–
UAAGUGUCAGGAUAUACAUGAGGAUCACCCAUGUGCCUCGCUACGGCCAGGCUCCCGUGUAGAAGGGAUCGUAA [Eternabot (Original) Solution 23] (Eterna round: R97, puzzle: Exclusion 3)	110	61.8	–	–	–	–
UAAUAAAGUGUGAGGAUAUGCUGGUCGAUAGAUCAGCAGAAGGCACAUGAGGAUCACCCAUGUAAUAUAUUUUA [Mat - Exclusion 4 - JL Mod - D46] (Eterna round: R96, puzzle: Brourd's mod of Exclusion 4)	238	56.1	–	40.6	–	–
UAAUAAAGUGUGAGGAUAUGCUGGUCGAUAGAUCAGCAGAAGGCACAUGAGGAUCACCCAUGUAAUAUAUUUUA [Mat - Exclusion 4 - JL Mod - D46] (puzzle: Brourd's mod of Exclusion 4)	–	–	54.3	–	–	–
UAAUAUCUGCAGGAUAUCGGUGUAGCACGCGUAUGAGAAGGGCAGACAUGAGGAUCACCCAUGUAUUAUAUCCG [Eternabot (L2) Solution 39] (Eterna round: R97, puzzle: Exclusion 6)	34.8	24.5	–	–	–	–
UAAUGCAAGUAAAGAUCCUACAUGAGGAUCACCCAUGUGCUCGUCUUAUAAAGUACUAUCACGAAAGUGAUAGUACA [Mat - Sensor v3 - turn-off var 1 - Eli Mod - D83] (puzzle: Sensor v3, turn-off variant 1)	–	–	31.8	–	385	167
UAAUUGUGAGGAUAUCUGGCUUCGAUCGUGAGAUCGAGGCUAGAGAAGGCACAUGAGGAUCACCCAUGUUCCUU [jl-ex4-4.10 salish99 mod] (Eterna round: R97, puzzle: Exclusion 4)	85.2	21.5	–	–	–	–
UAAUUUUUAGUAAGGAUAUCGGUCCCAAGGGACAACGAGAAGGUACAUGAGGAUCACCCAUGUGAUAAAAGAAU [Mod of Zala 5 - Jieux - Brourd's Mod of Exclusion 4] (Eterna round: R97, puzzle: Brourd's mod of Exclusion 4)	204	28.8	–	–	–	–
UACAAGCUUUGGCGAUCCUACAUGAGGAUCACCCAUGUGGGCCCGCCAGAGGCGGGCCCAUUUGCCCGUCUUGUGAA [Energy optimization 2] (Eterna round: R97, puzzle: Sensor, turn-off variant 1)	16.3	16.3	–	–	–	–
UACAUGAGGAUCACCCAUGUUUUGUCGUGUAUGGUACCCAUCUAGGAUAUCGUGUUAUUGGACCACGAGAAGGAGAGUAUCAAU [Excl-NG3-LRO01] (Eterna round: R96, puzzle: Exclusion NG 3)	19.2	24.1	–	18.1	–	–
UACAUGAGGAUCACCCAUGUUUUGUCGUGUAUGGUAUUUAUCUAGGAUAUCAAUGUAGUUAUUUAUGAGAAGGAGAAUAUUAAU [JMF's solution 41] (Eterna round: R96, puzzle: Exclusion NG 3)	43	50.8	–	37.5	–	–
UACAUGAGGAUCACCCAUGUUUUGUCGUGUAUGGUAUUUAUCUAGGAUAUCAUUUAAUUUAUUUAUGAGAAGGAGAAUAUUAAU [JMF's solution 99] (Eterna round: R96, puzzle: Exclusion NG 3)	29.8	31.1	–	28	–	–
UACAUGAGGAUCACCCAUGUUUUGUCGUGUUUGGUACCCGUUUAGGAUAUCGUGUUAUUGUAUCGCGAGAAGGAGAGUAUCUUU [Excl-NG3-LRO09] (Eterna round: R96, puzzle: Exclusion NG 3)	30.9	27	–	27.1	–	–
UACCCUAAGGUGAGGAUAUCUAGGCCUAGAGGUCAAGAGAAGGCACAUGAGGAUCACCCAUGUAGUUGAUACGA [BmEX4 B.25] (Eterna round: R97, puzzle: Brourd's mod of Exclusion 4)	77.4	21.9	–	–	–	–

Sequence	apparent KD of MS2 coat protein (input ligand: FMN 200 uM) [nM]	apparent KD of MS2 coat protein (input ligand: none) [nM]	apparent KD of MS2 coat protein [1] [nM]	apparent KD of MS2 coat protein [2] [nM]	apparent KD of MS2 coat protein [3] [nM]	apparent KD of MS2 coat protein [4] [nM]
UACGUGUCAGGAUAUGCGUUGGUACAGAAGUAUGGCCAACGGCAGAAGGGACAUGAGGAUCACCCAUGUCGUCG [Eternabot (L1) Solution 60] (Eterna round: R97, puzzle: Exclusion 4)	139	26.8	–	–	–	–
UACUAUAAGGAGGAUAUCGUAUCGGAGACGAUACGAGAAGGCUUAACAUGAGGAUCACCCAUGUUCUUCAAUAU [Mat - Exclusion 6 - Eli Mod - D91] (puzzle: Exclusion 6)	–	–	14.8	–	–	–
UACUGGACAGGAUAUGUUCUUGAGCACUUGAGGAUCACCCAAGUCAUCAAGAACUCAGGCACAGAAGGGUUUAUGA [salish99_ex5_r4_004] (Eterna round: R97, puzzle: Exclusion 5)	22	15.4	–	–	–	–
UACUUGUUAGGAUAUCUUACAUUUGCAUUAUAGCAACUAUUGGAGAAGGGACAUGAGGAUCACCCAUGUUUGGG [tap-tap-tappy16] (Eterna round: R97, puzzle: Exclusion 4)	602	486	–	–	–	–
UAGAAUCGAGGAUAUACAUGAGGAUCACCCAUGUGUUGCCGCAUGAUAUGAUCGUCAGGUAGAAGGCGAUUAUA [Exclusion 3 - Mod of Jieux's Gilly Gone Silly 23 v.6] (puzzle: Exclusion 3)	–	–	83.4	–	37.6	82.9
UAGACUGAAGGAUAUACGUGGUAUCCGGCUAAUCAAGGUUCACAUGAGGAUCACCCAUGUAGAAGGUCAGCUCG [Eternabot (L2) Solution 18] (Eterna round: R97, puzzle: Exclusion 2)	359	58.4	–	–	–	–
UAGAUACAUGAGGAUCACCCAUGUGAGGAUAUGAGAAUUAUAUUAAAUGAAUGUAGUAUCAGAAGGCACAAAGG [JR_Ex1_Sub049] (Eterna round: R97, puzzle: Exclusion 1)	197	130	–	–	–	–
UAGAUUCAUUCCUCUAUAAACAUGAGGAUCACCCAUGUAAGUGAGGAUAUAGUAGGAGUUGUAUACUAGAAGGCACUUAGUUUU [JR_ExcNG3_Sub049] (Eterna round: R96, puzzle: Exclusion NG 3)	49.4	13.3	–	10.7	–	–
UAGUACAUCUAUGGGAGUAACAUGAGGAUCACCCAUGUAUGUCUUGUUUUUUGUUCGUCAUAGGCCUUUUGAUUGGC [JR_SV3TOV1_Sub028] (puzzle: Sensor v3, turn-off variant 1)	–	–	228	–	107	113
UAUAAGAUAGGAUAUACAGGCCCGUCUUCAUAUCGAUCCCGACAUGAGGAUCACCCAUGUAGAAGGAUCGUAUA [Mod 22 - Jieux - Exclusion 2] (Eterna round: R97, puzzle: Exclusion 2)	15	8.25	–	–	–	–
UAUAUAUAGUAAGGAUAUGUAAUUAUUUUAUAAACAGAAGGUACUGACAUGAGGAUCACCCAUGUUUUAGUGUGGGCAUGUAGA [JMF's solution 5] (Eterna round: R96, puzzle: Exclusion NG 1)	–	–	–	65.7	–	–
UAUAUAUAGUAAGGAUAUGUAAUUAUUUUAUCAACAGAAGGUACUGACAUGAGGAUCACCCAUGUUUUAGUGUGGGCAUGUAGA [JMF's solution 49] (Eterna round: R96, puzzle: Exclusion NG 1)	–	–	–	61.7	–	–
UAUAUAUAGUAAGGAUAUGUAUAUAUUGUAUAAACAGAAGGUACUGACAUGAGGAUCACCCAUGUUUUAGUGUGGGCAUGUAGA [JMF's solution 61] (Eterna round: R96, puzzle: Exclusion NG 1)	–	–	–	57.5	–	–
UAUAUAUAGUAAGGAUAUGUAUUUAUCUUAUAAACAGAAGGUACUGACAUGAGGAUCACCCAUGUUUUAGUGUGGGCAUGUAGA [JMF's solution 17] (Eterna round: R96, puzzle: Exclusion NG 1)	59.9	41.8	–	39	–	–
UAUAUAUAGUAAGGAUAUGUAUUUAUUUUAUUAACAGAAGGUACUGACAUGAGGAUCACCCAUGUUUUAGUGUGGGCAUGUAGA [JMF's solution 25] (Eterna round: R96, puzzle: Exclusion NG 1)	–	–	–	77.7	–	–
UAUAUGUCAGGAUAUUAGUAGUAAAUGAAUAAAAUUAUUACUGAGAAGGGACAUGAGGAUCACCCAUGUGCUUC [Mat - Exclusion 4 - Eli Mod - D25] (Eterna round: R97, puzzle: Exclusion 4)	224	27.9	–	–	–	–
